We go through 1 molecule from article PMC9712102, “Direct activation of a bacterial innate immune system by a viral capsid protein” (Nature, 2022).

The assay has as its target T1, CapRel^SJ46, purified full-length (Salmonella temperate phage SJ46).
T1 construct: also called purified CapRel^SJ46; source: E. coli BL21 (DE3), pET24d-His10-SUMO-capRel^SJ46, purified (nickel resin, SEC, tag removed with Ulp1); not shown: His10, N-terminal, cleaved; SUMO, N-terminal, cleaved
Put plainly: ITC; CapRel^SJ46 (or variant) at 150 μM in the syringe titrated into Gp57 (or variant) at 10 μM in the cell; 25 °C; 50 mM HEPES pH 7.5, 500 mM KCl, 500 mM NaCl, 150 mM imidazole, 10 mM MgCl2, 1 mM TCEP, 0.002% mellitic acid. The following applies: both partners purified. For orientation: In ITC the heat of successive injections is recorded.

B1: Gp57, purified (natural protein)
chain: MAKKYDELDATIVANHLQIQGVKTDASDMGIWTAQELHKIRSTAYEKEYPAGSALRVFPVTNELSDTDKTFEYQTFDKVGYAKIIADYTDDLPTVDALMTSEFGKVFRLGNAFLISIDEIKAGQRTGKSLSTRKANAAQNAHDQLINFLVFKGSKPHKIVSVFDHPNLTKIVSKGWMSQDGNTKFPDVASDELEAAIETIEEVTKGQHRATNILIPPSMRKVLTVRMENTTESYLEYFQKQNGGITIDSIAELEDIDGKGTKGCLVYEKDPMNMSIEIPEAFNMLPAQPKDLHFKVPCTSKCTGLTIYRPFTMVLITGLKKSV
As a reminder, the Kd is a measure of binding affinity in units of concentration. Read a low Kd as higher affinity. In the case of B1, the Kd is 350 nM.
